Numbered stars: 1 amine (or outer) side, 2 acyl side, 3 side chain; on linkers, the order of the positions; unused ones are H or OH. Square brackets hold non-standard residues; d marks the D form. Side chains are listed from the residue outwards. * marks the point of attachment. C20 diacid = O=C(O)CCCCCCCCCCCCCCCCCCC(=O)*; C18 diacid = O=C(O)CCCCCCCCCCCCCCCCC(=O)*; γGlu = O=C(O)[C@H](CCC(=O)[*:2])N[*:1]; Stearoyl = CCCCCCCCCCCCCCCCCC(=O)*; Palmitoyl = CCCCCCCCCCCCCCCC(=O)*; AEEA = NCCOCCOCC(=O)O; Aib = CC(C)(N)C(=O)O; βAla = NCCC(=O)O
T1: human GLP-2 receptor (hGLP2-R) (human, UniProt O95838)
T1 sequence: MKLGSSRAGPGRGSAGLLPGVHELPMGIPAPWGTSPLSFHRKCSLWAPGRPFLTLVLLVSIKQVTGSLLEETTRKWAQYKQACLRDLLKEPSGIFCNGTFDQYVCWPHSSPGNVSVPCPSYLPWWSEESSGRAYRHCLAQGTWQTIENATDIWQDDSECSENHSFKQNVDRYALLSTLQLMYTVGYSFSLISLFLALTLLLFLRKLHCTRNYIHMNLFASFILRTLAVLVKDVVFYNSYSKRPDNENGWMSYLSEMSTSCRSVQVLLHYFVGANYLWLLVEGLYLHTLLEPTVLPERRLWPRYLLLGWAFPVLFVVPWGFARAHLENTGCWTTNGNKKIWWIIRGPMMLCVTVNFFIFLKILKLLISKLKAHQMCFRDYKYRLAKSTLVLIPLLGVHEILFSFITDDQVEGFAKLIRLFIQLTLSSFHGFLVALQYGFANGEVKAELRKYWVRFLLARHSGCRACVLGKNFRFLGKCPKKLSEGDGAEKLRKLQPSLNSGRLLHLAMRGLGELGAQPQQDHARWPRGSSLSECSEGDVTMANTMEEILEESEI

B1: Compound 36 (peptide)
peptide: H-H[Aib]EGSFTSELATILDK(Stearoyl)QAARDFIAWLIQYKITD-OH
SMILES: CCCCCCCCCCCCCCCCCC(=O)NCCCC[C@H](NC(=O)[C@H](CC(=O)O)NC(=O)[C@H](CC(C)C)NC(=O)[C@@H](NC(=O)[C@@H](NC(=O)[C@H](C)NC(=O)[C@H](CC(C)C)NC(=O)[C@H](CCC(=O)O)NC(=O)[C@H](CO)NC(=O)[C@@H](NC(=O)[C@H](Cc1ccccc1)NC(=O)[C@H](CO)NC(=O)CNC(=O)[C@H](CCC(=O)O)NC(=O)C(C)(C)NC(=O)[C@@H](N)Cc1c[nH]cn1)[C@@H](C)O)[C@@H](C)O)[C@@H](C)CC)C(=O)N[C@@H](CCC(N)=O)C(=O)N[C@@H](C)C(=O)N[C@@H](C)C(=O)N[C@@H](CCCNC(=N)N)C(=O)N[C@@H](CC(=O)O)C(=O)N[C@@H](Cc1ccccc1)C(=O)N[C@H](C(=O)N[C@@H](C)C(=O)N[C@@H](Cc1c[nH]c2ccccc12)C(=O)N[C@@H](CC(C)C)C(=O)N[C@H](C(=O)N[C@@H](CCC(N)=O)C(=O)N[C@@H](Cc1ccc(O)cc1)C(=O)N[C@@H](CCCCN)C(=O)N[C@H](C(=O)N[C@H](C(=O)N[C@@H](CC(=O)O)C(=O)O)[C@@H](C)O)[C@@H](C)CC)[C@@H](C)CC)[C@@H](C)CC
B2: Compound 32 (peptide)
peptide: H-H[Aib]EGSFTSELATILDK([βAla-Palmitoyl])QAARDFIAWLQQHKITD-OH
SMILES: CCCCCCCCCCCCCCCC(=O)NCCC(=O)NCCCC[C@H](NC(=O)[C@H](CC(=O)O)NC(=O)[C@H](CC(C)C)NC(=O)[C@@H](NC(=O)[C@@H](NC(=O)[C@H](C)NC(=O)[C@H](CC(C)C)NC(=O)[C@H](CCC(=O)O)NC(=O)[C@H](CO)NC(=O)[C@@H](NC(=O)[C@H](Cc1ccccc1)NC(=O)[C@H](CO)NC(=O)CNC(=O)[C@H](CCC(=O)O)NC(=O)C(C)(C)NC(=O)[C@@H](N)Cc1c[nH]cn1)[C@@H](C)O)[C@@H](C)O)[C@@H](C)CC)C(=O)N[C@@H](CCC(N)=O)C(=O)N[C@@H](C)C(=O)N[C@@H](C)C(=O)N[C@@H](CCCNC(=N)N)C(=O)N[C@@H](CC(=O)O)C(=O)N[C@@H](Cc1ccccc1)C(=O)N[C@H](C(=O)N[C@@H](C)C(=O)N[C@@H](Cc1c[nH]c2ccccc12)C(=O)N[C@@H](CC(C)C)C(=O)N[C@@H](CCC(N)=O)C(=O)N[C@@H](CCC(N)=O)C(=O)N[C@@H](Cc1c[nH]cn1)C(=O)N[C@@H](CCCCN)C(=O)N[C@H](C(=O)N[C@H](C(=O)N[C@@H](CC(=O)O)C(=O)O)[C@@H](C)O)[C@@H](C)CC)[C@@H](C)CC
B3: Compound 34 (peptide)
peptide: H-H[Aib]EGSFTSELATILDK([AEEA-AEEA-γGlu-C20 diacid])QAARDFIAWLKQHKITD-OH
SMILES: CC[C@H](C)[C@H](NC(=O)[C@H](Cc1ccccc1)NC(=O)[C@H](CC(=O)O)NC(=O)[C@H](CCCNC(=N)N)NC(=O)[C@H](C)NC(=O)[C@H](C)NC(=O)[C@H](CCC(N)=O)NC(=O)[C@H](CCCCNC(=O)COCCOCCNC(=O)COCCOCCNC(=O)CC[C@H](NC(=O)CCCCCCCCCCCCCCCCCCC(=O)O)C(=O)O)NC(=O)[C@H](CC(=O)O)NC(=O)[C@H](CC(C)C)NC(=O)[C@@H](NC(=O)[C@@H](NC(=O)[C@H](C)NC(=O)[C@H](CC(C)C)NC(=O)[C@H](CCC(=O)O)NC(=O)[C@H](CO)NC(=O)[C@@H](NC(=O)[C@H](Cc1ccccc1)NC(=O)[C@H](CO)NC(=O)CNC(=O)[C@H](CCC(=O)O)NC(=O)C(C)(C)NC(=O)[C@@H](N)Cc1c[nH]cn1)[C@@H](C)O)[C@@H](C)O)[C@@H](C)CC)C(=O)N[C@@H](C)C(=O)N[C@@H](Cc1c[nH]c2ccccc12)C(=O)N[C@@H](CC(C)C)C(=O)N[C@@H](CCCCN)C(=O)N[C@@H](CCC(N)=O)C(=O)N[C@@H](Cc1c[nH]cn1)C(=O)N[C@@H](CCCCN)C(=O)N[C@H](C(=O)N[C@H](C(=O)N[C@@H](CC(=O)O)C(=O)O)[C@@H](C)O)[C@@H](C)CC
B4: Compound 31 (peptide)
peptide: H-H[Aib]EGSFTSELATILDK([γGlu-C18 diacid])QAARDFIAWLISHKITD-OH
SMILES: CC[C@H](C)[C@H](NC(=O)[C@H](Cc1ccccc1)NC(=O)[C@H](CC(=O)O)NC(=O)[C@H](CCCNC(=N)N)NC(=O)[C@H](C)NC(=O)[C@H](C)NC(=O)[C@H](CCC(N)=O)NC(=O)[C@H](CCCCNC(=O)CC[C@H](NC(=O)CCCCCCCCCCCCCCCCC(=O)O)C(=O)O)NC(=O)[C@H](CC(=O)O)NC(=O)[C@H](CC(C)C)NC(=O)[C@@H](NC(=O)[C@@H](NC(=O)[C@H](C)NC(=O)[C@H](CC(C)C)NC(=O)[C@H](CCC(=O)O)NC(=O)[C@H](CO)NC(=O)[C@@H](NC(=O)[C@H](Cc1ccccc1)NC(=O)[C@H](CO)NC(=O)CNC(=O)[C@H](CCC(=O)O)NC(=O)C(C)(C)NC(=O)[C@@H](N)Cc1c[nH]cn1)[C@@H](C)O)[C@@H](C)O)[C@@H](C)CC)C(=O)N[C@@H](C)C(=O)N[C@@H](Cc1c[nH]c2ccccc12)C(=O)N[C@@H](CC(C)C)C(=O)N[C@H](C(=O)N[C@@H](CO)C(=O)N[C@@H](Cc1c[nH]cn1)C(=O)N[C@@H](CCCCN)C(=O)N[C@H](C(=O)N[C@H](C(=O)N[C@@H](CC(=O)O)C(=O)O)[C@@H](C)O)[C@@H](C)CC)[C@@H](C)CC
B5: Compound 38 (peptide)
peptide: H-H[Aib]EGTFSSELATILDEQAARDFIAWLIAHKITD[dK][dK][dK][dK][dK][dK]([γGlu-C18 diacid])-NH2
SMILES: CC[C@H](C)[C@H](NC(=O)[C@H](CC(C)C)NC(=O)[C@H](Cc1c[nH]c2ccccc12)NC(=O)[C@H](C)NC(=O)[C@@H](NC(=O)[C@H](Cc1ccccc1)NC(=O)[C@H](CC(=O)O)NC(=O)[C@H](CCCNC(=N)N)NC(=O)[C@H](C)NC(=O)[C@H](C)NC(=O)[C@H](CCC(N)=O)NC(=O)[C@H](CCC(=O)O)NC(=O)[C@H](CC(=O)O)NC(=O)[C@H](CC(C)C)NC(=O)[C@@H](NC(=O)[C@@H](NC(=O)[C@H](C)NC(=O)[C@H](CC(C)C)NC(=O)[C@H](CCC(=O)O)NC(=O)[C@H](CO)NC(=O)[C@H](CO)NC(=O)[C@H](Cc1ccccc1)NC(=O)[C@@H](NC(=O)CNC(=O)[C@H](CCC(=O)O)NC(=O)C(C)(C)NC(=O)[C@@H](N)Cc1c[nH]cn1)[C@@H](C)O)[C@@H](C)O)[C@@H](C)CC)[C@@H](C)CC)C(=O)N[C@@H](C)C(=O)N[C@@H](Cc1c[nH]cn1)C(=O)N[C@@H](CCCCN)C(=O)N[C@H](C(=O)N[C@H](C(=O)N[C@@H](CC(=O)O)C(=O)N[C@H](CCCCN)C(=O)N[C@H](CCCCN)C(=O)N[C@H](CCCCN)C(=O)N[C@H](CCCCN)C(=O)N[C@H](CCCCN)C(=O)N[C@H](CCCCNC(=O)CC[C@H](NC(=O)CCCCCCCCCCCCCCCCC(=O)O)C(=O)O)C(N)=O)[C@@H](C)O)[C@@H](C)CC
B6: Compound 33 (peptide)
peptide: H-H[Aib]EGSFTSELATILDK([AEEA-γGlu-C18 diacid])QAARDFIAWLYQHKITD-OH
SMILES: CC[C@H](C)[C@H](NC(=O)[C@H](Cc1ccccc1)NC(=O)[C@H](CC(=O)O)NC(=O)[C@H](CCCNC(=N)N)NC(=O)[C@H](C)NC(=O)[C@H](C)NC(=O)[C@H](CCC(N)=O)NC(=O)[C@H](CCCCNC(=O)COCCOCCNC(=O)CC[C@H](NC(=O)CCCCCCCCCCCCCCCCC(=O)O)C(=O)O)NC(=O)[C@H](CC(=O)O)NC(=O)[C@H](CC(C)C)NC(=O)[C@@H](NC(=O)[C@@H](NC(=O)[C@H](C)NC(=O)[C@H](CC(C)C)NC(=O)[C@H](CCC(=O)O)NC(=O)[C@H](CO)NC(=O)[C@@H](NC(=O)[C@H](Cc1ccccc1)NC(=O)[C@H](CO)NC(=O)CNC(=O)[C@H](CCC(=O)O)NC(=O)C(C)(C)NC(=O)[C@@H](N)Cc1c[nH]cn1)[C@@H](C)O)[C@@H](C)O)[C@@H](C)CC)C(=O)N[C@@H](C)C(=O)N[C@@H](Cc1c[nH]c2ccccc12)C(=O)N[C@@H](CC(C)C)C(=O)N[C@@H](Cc1ccc(O)cc1)C(=O)N[C@@H](CCC(N)=O)C(=O)N[C@@H](Cc1c[nH]cn1)C(=O)N[C@@H](CCCCN)C(=O)N[C@H](C(=O)N[C@H](C(=O)N[C@@H](CC(=O)O)C(=O)O)[C@@H](C)O)[C@@H](C)CC

Molecular target: human glucagon-like peptide 1 receptor (GLP-1R) (human, UniProt P43220)
Assay: cell-based or functional assay

Row | EC50 GLP-1 (nM), cAMP AlphaScreen | Binder
1 | 0.32 nM | B1
2 | 0.099 nM | H-H[Aib]EGSFTSELATILDK([AEEA-AEEA-AEEA-iso‑Lys-C20 diacid])QAARDFIAWLIQQKITD-OH [Compound 35]
3 | 0.38 nM | B2
4 | 0.28 nM | B3
5 | 0.27 nM | B4
6 | 0.25 nM | B5
7 | 0.85 nM | B6

Molecular target: T1, human GLP-2 receptor (hGLP2-R)
Assay: cell-based or functional assay

Row | EC50 GLP-2 (nM), cAMP AlphaScreen | Binder
8 | 3.2 nM | B1
9 | 0.3 nM | H-H[Aib]EGSFTSELATILDK([AEEA-AEEA-AEEA-iso‑Lys-C20 diacid])QAARDFIAWLIQQKITD-OH [Compound 35]
10 | 0.46 nM | B2
11 | 0.13 nM | B3
12 | 0.24 nM | B4
13 | 0.89 nM | B5
14 | 0.072 nM | B6

— patent publication US20250073311A1, “DOSAGE REGIME” (ZEALAND PHARMA A/S, priority 2021, published 2025)
